B1: hu28 VH1.0/VL1.0: humanized r28 variant VH1.0/VL1.0, anti-Notch3 antibody (VH SEQ ID NO: 13, VL SEQ ID NO: 25) (antibody, V domains shown)
VH: EVQLVESGGGLVQPGGSLRLSCAASGFTFRDYGMTWVRQAPGKGLEWVAYISSGSNYIYYAEAVKGRFTISRDNAKNSLYLQMNSLRAEDTAVYYCARRGPFVLDAWGQGTLVTVSS
VL: DIQMTQSPSSLSASVGDRVTITCKASQSINRYLHWYQQKPGKAPKLLIYNANGLQTGVPSRFSGSGSGTDFTLTISSLQPEDFATYYCLQHNTWPDTFGGGTKVEIK
B2: ch75: rat-human chimeric anti-Notch3 antibody 75, rat variable regions fused with human IgG1 and human kappa (antibody, V domains shown)
VH: QVKLLQSGAALVKPGASVKMSCKASGYAFTDYWVTWVKQSHGKSLEWIGEISPNSGGTNFNEKFKGKATLTVDKSTSTAYMELSRLTSEDSAIYYCTRGEIRYNWFAYWGQGTLVTVSS
VL: NIVMTQSPKSMSISVGDRVTMNCKASQNVGNNIAWYQQKPGQSPKLLIYYASNRYTGVPDRFTGGGYGTDFTLTINSMQAEDAAFYYCQRLYNSPFTFGSGTKLEIK

How the values were obtained:
[1] = system: HCC2429 or MDA-MB-468 cells; assay: Co-localization with LAMP1, indirect immunofluorescence; assay type: cell-based, human; details: 10 μg/ml; after incubation at 37° C. for 90 minutes
Description: HCC2429 or MDA-MB-468 cells were cultured in a Lab Tec II 4 chambered coverglass with cover #1.5 borosilicate sterile slides (Thermo Fisher Scientific Inc.). For binding and internalization assays, cells were washed twice with HBSS++ and unconjugated anti-Notch3 antibodies, hu75 and hu28, were added to the cells at a concentration 10 μg/ml in 2% bovine serum albumin (BSA)/HBSS++ for 25 minutes on ice. To visual membrane binding at time 0 minutes, control cells were washed with ice cold HBSS++ and then fixed in 4% paraformaldehyde in PBS for 10 minutes. For antibody internalization, cells were washed twice with ice cold HBSS++ and then pre-warmed complete growth media was added to the cells and placed inside a humidified 37° C., 5% CO2 incubator. Cells were removed from the incubator, washed and fixed as before at multiple time points from 5 minutes to 18 hours. Cells were then washed 3 times with PBS, and permeabilized for 10 minutes with 0.3% Triton X-100 in PBS. Cells were washed 3 times with PBS for 5 minutes each time and then blocked for 1 hour in 3% BSA/PBS. Anti-LAMP-1 mouse monoclonal antibody (H4A3, Abcam) was added at 1:100 in 2% BSA/PBS for overnight incubation at 4° C. Cells were washed twice with PBS for 5 minutes each and then secondary goat anti-human Alexa Fluor 488 and goat anti-mouse Alexa Fluor 555 (Life technologies) were added for 45 minutes in the dark. […]

[2] = system: Notch3 signaling in human Notch3 reporter cells co-cultured with DLL4-HEK293 cells; assay: Notch3 reporter gene co-culture assay; assay type: cell-based; details: average of two or three independent experiments; read-out: IC50 (nM) inhibition of Notch3-dependent signaling
Description: The ability of anti-Notch3 chimeric antibodies, ch28-hulgG1 and ch75-hulgG1, and humanized antibodies, hu28 and hu75, to inhibit Notch3 signaling were tested in a Notch3-dependent reporter gene co-culture assay. Anti-Notch3 antibodies were pre-incubated with Notch3 reporter cells and then co-cultured with DLL4-HEK293 cells to activate Notch3 signaling or with parental HEK293 cells as a control.
To generate the Notch3 reporter cell line, a series of three sequential, stable transfections were performed in the U-2 OS human osteosarcoma cell line (ATCC, Manassas, Va.). […]
To generate the ligand-expressing cells, HEK293 cells (ATCC) were transfected with a vector for expression of human DLL4. […] Following transfection, HEK293 cells were selected in 0.5 mg/ml G418, and clonal lines were isolated, expanded and analyzed for DLL4 expression. […]
The luminescent readings from Firefly-luciferase were divided by the internal control Renilla-luciferase reading to normalize the signals (termed hereinafter “F/R ratio”). […]
Human Notch3 reporter cells were trypinized and harvested from culture plate in assay medium which consisted 50% complete McCoy's 5A media (McCoy's 5A with 10% FBS and penicillin, streptomycin, Invitrogen) and 50% of complete MEM media (MEM with 10% FBS and penicillin, streptomycin, Invitrogen) and counted. […]

HCC2429 lung xenografts = assay: HCC2429 lung xenograft model (unconjugated antibodies); assay type: in vivo, mouse; details: for tumor volume (mm^3 ± SEM): iv Q4dx4
Description: Additional in vivo experiments were performed with the HCC2429 lung cancer cell line using an unconjugated rat-human chimeric anti-Notch3 antibody, ch75-hIgG1, to determine whether ch75-hIgG1's Notch3 signaling inhibition contributed to the observed potency of the anti-Notch3 hu75-ADCs. To generate xenografts, nude (Nu/Nu) female mice were implanted subcutaneously with 3.5×10^6 HCC2429 cells in 50% Matrigel (BD Biosciences).
The HCC2429 lung model was dosed intravenously Q4d×4 with PBS vehicle, rat-human chimeric anti-Notch3 antibody, ch75-hIgG1, and humanized anti-Notch1 antibody, hu438 VH1.1/VL1.8, at the does provided in Table 22. From 8 animals, mean tumor masses (±SEM) for each treatment group were calculated and compared to the control PBS vehicle group. P-values based on analysis of variance (ANOVA) were calculated to determine statistical significance of observed growth inhibition of anti-Notch treatments versus control PBS using Excel built-in statistical functions. Percent (%) growth inhibition values were calculated from measurements on the final day of the study for drug-treated compared with vehicle-treated mice with the formula 100*{1−[(TreatedDay 14−TreatedDay 0)/(ControlDay 14−ControlDay 0)]}.

Molecule | co-localization with LAMP1 after internalization [1] | IC50 [2] [nM] | tumor volume (mm^3 ± SEM) (HCC2429 lung xenografts; Day 0, dose not given) [mm^3] | tumor volume (mm^3 ± SEM) (HCC2429 lung xenografts; Day 3) [mm^3] | tumor volume (mm^3 ± SEM) (HCC2429 lung xenografts; Day 5) [mm^3] | tumor volume (mm^3 ± SEM) (HCC2429 lung xenografts; Day 7) [mm^3] | tumor volume (mm^3 ± SEM) (HCC2429 lung xenografts; Day 10) [mm^3] | tumor volume (mm^3 ± SEM) (HCC2429 lung xenografts; Day 12) [mm^3] | tumor volume (mm^3 ± SEM) (HCC2429 lung xenografts; Day 14) [mm^3] | tumor growth inhibition compared to PBS vehicle (HCC2429 lung xenografts; final day of the study (Day 14))
B1 | co-localized with anti-LAMP1 antibodies | – | – | – | – | – | – | – | – | –
B2 | – | 2.1 | 110 ± 5 | 211 ± 24 | 356 ± 41 | 574 ± 59 | 1054 ± 104 | 1441 ± 139 | 1821 ± 175 | did not inhibit tumor growth

— patent publication US9433687B2, “Anti-Notch3 antibodies and antibody-drug conjugates” (Pfizer Inc., priority 2012, dated 2016)
